Results reported in FireProtDB (doi:10.1016/j.jmb.2003.11.050).
“And” between values parts separate entries of the source, which are not always exact repeats. Identical values can stand only once.

B1: Cold shock protein CspB, P41016 (parent)
chain: MQRGKVKWFNNEKGYGFIEVEGGSDVFVHFTAIQGEGFKTLEEGQEVSFEIVQGNRGPQAANVVKL

Variants of: B1
Conditions: Bacillus caldolyticus; pH 7; 25 °C; GdnHCl; Fluorescence; sodium cacodylate 100 mM; reversible: yes; structure 1C9O; whole UniProt chain shown

Question: Which “ddG of mutation (higher = less stable)” value does the source give for E50W L66C here?
Answer: 1.7 kcal/mol and 4.4 kcal/mol

Question: What about the denaturant m value of the same variant?
Answer: 1.97 kcal/mol/M and 1.54 kcal/mol/M

Question: What about the “denaturant midpoint (higher = more stable)” value of the same variant?
Answer: 1.64 M and 1.68 M

Question: What about the unfolding free energy of the same variant?
Answer: 3.23 kcal/mol and 2.58 kcal/mol

Question: What does the source list for E50W?
Answer: ddG of mutation (higher = less stable): -0.3 kcal/mol; denaturant m value: 1.69 kcal/mol/M; denaturant midpoint (higher = more stable): 2.18 M; unfolding free energy: 3.7 kcal/mol

Question: What does the source list for F38W L66C?
Answer: denaturant m value: 1.97 kcal/mol/M and 1.9 kcal/mol/M and 1.54 kcal/mol/M; denaturant midpoint (higher = more stable): 2.14 M and 2.11 M and 1.83 M; unfolding free energy: 4.21 kcal/mol and 4.02 kcal/mol and 2.82 kcal/mol

Question: What does the source list for E50W S24C?
Answer: ddG of mutation (higher = less stable): 0.8 kcal/mol and 0.3 kcal/mol; denaturant m value: 1.64 kcal/mol/M and 1.43 kcal/mol/M; denaturant midpoint (higher = more stable): 2.09 M and 2.05 M; unfolding free energy: 3.44 kcal/mol and 2.92 kcal/mol

Question: Which results are given for F38W?
Answer: ddG of mutation (higher = less stable): -0.7 kcal/mol; denaturant m value: 1.75 kcal/mol/M; denaturant midpoint (higher = more stable): 2.18 M; unfolding free energy: 3.8 kcal/mol
